Legend:
[1] = target: PCAF histone acetyltransferase (full length, purified recombinant) (UniProt Q92831 1-832, limits assumed); test: cell-based or functional assay
[2] = target: p300 histone acetyltransferase (full length, purified recombinant) (UniProt Q09472 2-2414, limits assumed); test: cell-based or functional assay
Sequence of p300 histone acetyltransferase (full length, purified recombinant) (Q09472 2-2414 limits assumed): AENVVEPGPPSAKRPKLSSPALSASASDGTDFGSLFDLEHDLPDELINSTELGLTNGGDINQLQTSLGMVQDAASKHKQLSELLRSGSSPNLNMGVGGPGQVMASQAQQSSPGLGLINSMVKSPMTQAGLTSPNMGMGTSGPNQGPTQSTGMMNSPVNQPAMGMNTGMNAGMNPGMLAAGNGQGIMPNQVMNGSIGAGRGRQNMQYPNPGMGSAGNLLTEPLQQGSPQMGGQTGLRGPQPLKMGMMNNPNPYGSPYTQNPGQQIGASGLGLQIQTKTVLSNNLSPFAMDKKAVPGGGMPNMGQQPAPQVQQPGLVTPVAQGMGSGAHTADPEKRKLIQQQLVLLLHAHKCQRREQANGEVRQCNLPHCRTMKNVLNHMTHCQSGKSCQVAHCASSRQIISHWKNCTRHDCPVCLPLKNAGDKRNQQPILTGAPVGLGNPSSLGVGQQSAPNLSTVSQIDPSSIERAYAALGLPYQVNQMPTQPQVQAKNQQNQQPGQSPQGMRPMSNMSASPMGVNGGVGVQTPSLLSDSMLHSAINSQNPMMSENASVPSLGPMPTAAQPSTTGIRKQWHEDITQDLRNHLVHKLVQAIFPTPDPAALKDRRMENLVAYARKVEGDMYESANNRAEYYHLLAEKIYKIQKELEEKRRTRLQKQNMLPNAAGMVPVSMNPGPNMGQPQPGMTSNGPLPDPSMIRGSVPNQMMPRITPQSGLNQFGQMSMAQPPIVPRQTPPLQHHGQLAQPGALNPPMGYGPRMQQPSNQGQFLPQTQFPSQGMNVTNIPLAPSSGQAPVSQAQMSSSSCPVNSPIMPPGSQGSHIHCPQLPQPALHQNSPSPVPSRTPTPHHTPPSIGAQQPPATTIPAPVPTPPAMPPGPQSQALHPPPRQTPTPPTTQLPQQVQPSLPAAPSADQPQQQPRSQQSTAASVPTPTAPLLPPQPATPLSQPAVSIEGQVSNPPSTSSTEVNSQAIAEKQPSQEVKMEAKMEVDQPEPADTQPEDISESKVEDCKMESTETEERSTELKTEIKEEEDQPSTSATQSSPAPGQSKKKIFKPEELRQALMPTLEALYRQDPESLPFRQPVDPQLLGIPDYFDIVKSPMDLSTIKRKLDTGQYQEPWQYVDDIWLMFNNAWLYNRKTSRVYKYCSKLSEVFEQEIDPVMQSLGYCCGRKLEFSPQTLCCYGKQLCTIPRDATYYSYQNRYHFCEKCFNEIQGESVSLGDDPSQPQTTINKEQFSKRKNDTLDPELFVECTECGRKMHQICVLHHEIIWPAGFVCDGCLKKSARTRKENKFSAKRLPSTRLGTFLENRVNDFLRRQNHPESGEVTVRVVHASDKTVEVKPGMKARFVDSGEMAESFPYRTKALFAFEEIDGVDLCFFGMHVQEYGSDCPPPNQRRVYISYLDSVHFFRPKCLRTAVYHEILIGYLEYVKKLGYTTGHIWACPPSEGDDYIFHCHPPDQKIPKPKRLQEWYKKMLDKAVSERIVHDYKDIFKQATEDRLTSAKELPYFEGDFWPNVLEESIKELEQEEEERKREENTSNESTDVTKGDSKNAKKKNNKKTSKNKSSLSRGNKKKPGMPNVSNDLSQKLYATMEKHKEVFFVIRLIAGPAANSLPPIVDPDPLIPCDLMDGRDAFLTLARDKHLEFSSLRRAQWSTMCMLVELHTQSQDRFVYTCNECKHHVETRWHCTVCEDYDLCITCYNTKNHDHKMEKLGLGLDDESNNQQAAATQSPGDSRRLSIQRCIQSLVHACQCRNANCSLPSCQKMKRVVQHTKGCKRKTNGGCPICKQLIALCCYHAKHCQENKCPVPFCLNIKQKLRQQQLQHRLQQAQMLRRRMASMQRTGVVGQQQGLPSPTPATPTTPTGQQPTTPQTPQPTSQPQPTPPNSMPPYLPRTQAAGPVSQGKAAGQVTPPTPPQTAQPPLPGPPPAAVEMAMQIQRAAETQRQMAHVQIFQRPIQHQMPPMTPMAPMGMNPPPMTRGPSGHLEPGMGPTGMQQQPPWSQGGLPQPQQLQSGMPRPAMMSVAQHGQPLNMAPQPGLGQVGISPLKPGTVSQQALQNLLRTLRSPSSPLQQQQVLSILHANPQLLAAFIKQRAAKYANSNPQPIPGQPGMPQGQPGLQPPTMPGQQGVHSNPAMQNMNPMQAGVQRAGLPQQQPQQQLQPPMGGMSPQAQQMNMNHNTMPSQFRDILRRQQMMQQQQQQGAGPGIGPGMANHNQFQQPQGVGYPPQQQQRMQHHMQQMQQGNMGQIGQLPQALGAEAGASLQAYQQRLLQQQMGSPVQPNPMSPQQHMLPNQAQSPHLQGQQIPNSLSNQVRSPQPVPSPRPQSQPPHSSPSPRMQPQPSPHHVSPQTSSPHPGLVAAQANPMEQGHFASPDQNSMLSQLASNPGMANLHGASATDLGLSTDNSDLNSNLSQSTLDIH

Sequence of PCAF histone acetyltransferase (full length, purified recombinant) (Q92831 whole entry): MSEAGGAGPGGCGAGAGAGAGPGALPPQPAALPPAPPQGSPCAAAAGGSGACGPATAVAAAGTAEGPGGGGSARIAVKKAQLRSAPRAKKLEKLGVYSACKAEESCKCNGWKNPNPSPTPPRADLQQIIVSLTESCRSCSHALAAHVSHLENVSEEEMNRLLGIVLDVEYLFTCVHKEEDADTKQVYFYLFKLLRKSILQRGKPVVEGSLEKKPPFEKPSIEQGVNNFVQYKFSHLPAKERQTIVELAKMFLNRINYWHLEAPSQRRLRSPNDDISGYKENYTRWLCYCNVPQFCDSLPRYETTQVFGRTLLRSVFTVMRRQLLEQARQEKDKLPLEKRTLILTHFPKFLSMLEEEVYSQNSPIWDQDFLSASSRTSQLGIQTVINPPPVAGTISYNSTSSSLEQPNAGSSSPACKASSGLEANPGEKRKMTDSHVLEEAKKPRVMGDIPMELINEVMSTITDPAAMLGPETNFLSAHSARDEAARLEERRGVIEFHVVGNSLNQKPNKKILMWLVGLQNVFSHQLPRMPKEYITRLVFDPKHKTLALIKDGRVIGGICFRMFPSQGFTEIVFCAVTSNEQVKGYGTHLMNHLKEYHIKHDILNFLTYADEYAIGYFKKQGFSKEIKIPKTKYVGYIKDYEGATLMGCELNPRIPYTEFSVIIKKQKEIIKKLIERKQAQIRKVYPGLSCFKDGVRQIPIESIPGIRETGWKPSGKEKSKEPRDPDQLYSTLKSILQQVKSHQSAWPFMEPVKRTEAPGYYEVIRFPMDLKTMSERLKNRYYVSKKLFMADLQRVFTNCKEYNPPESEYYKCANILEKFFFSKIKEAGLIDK

With Ac-GGKAPRK-NH2 (also: further groups not given here) [H3-CoA-7] as the binder, how does the “IC50 with PCAF (µM), HAT activity inhibition, mixed histones” value [1] read?
Its value is greater than 20 µM.

And the “IC50 with p300 (µM), HAT activity inhibition, mixed histones” value [2]?
The value was greater than 30 µM.
